Measurements from PMC8001920, “Selecting Subpopulations of High-Quality Protein Conformers among Conformational Mixtures of Recombinant Bovine MMP-9 Solubilized from Inclusion Bodies” (International Journal of Molecular Sciences, 2021).

Target: the molecule itself
Assay: SDS-PAGE and Western blot; IMAC peaks of solubilized MMP-9 from L. lactis, mixed 1:1 with Laemmli buffer, boiled at 90 °C for 10 min, run with 0.1% SDS, detected with anti-His-tag monoclonal antibody; bands of high molecular weight

B1: recombinant bovine MMP-9 fragment (Phe107-Pro449), C-terminally His-tagged, produced in L. lactis (domain or fragment)
chain: not shown
notes: matrix metalloproteinase 9 (MMP-9), bovine, fragment Phe107-Pro449 of NCBI NM_174744.2; The same fragment was also made in Clearcoli BL21(DE3) (pETDuet); no result on self-association is told for that material; also called matrix metalloproteinase 9; solubilized MMP-9; not shown: 6His-tag, C-terminal, kept
- binding result: binds
